Source: patent US20120276019

What was measured:
[1] = biological target: recombinant α-synuclein 1-95 (1-95 AA) (GenWay Biotech) (UniProt P37840)
[2] = biological target: recombinant α-synuclein, full length (1-140 AA) (rPeptide) (UniProt P37840)

Chain of porcine pancreas derived KLK1 (chain, as listed by the source): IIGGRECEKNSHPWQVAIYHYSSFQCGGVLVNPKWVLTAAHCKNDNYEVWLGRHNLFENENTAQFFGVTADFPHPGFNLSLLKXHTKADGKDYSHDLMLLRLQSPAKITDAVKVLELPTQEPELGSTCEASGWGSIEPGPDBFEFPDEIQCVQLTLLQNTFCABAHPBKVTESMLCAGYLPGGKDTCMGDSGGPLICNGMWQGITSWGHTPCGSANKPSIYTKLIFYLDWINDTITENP

porcine pancreas derived KLK1
degradation (cleavage) of α-synuclein 1-95, Western blot after 3 hours at 37° C., 1 mM KLK1 + 250 µg/ml α-synuclein 1-95 [1]: After 3 hours of treatment, all detectable α-synuclein 1-95 was degraded by KLK1 | degradation (cleavage) of α-synuclein, Western blot after 24 hours at 37° C., 100 nM KLK1 + 2.5 µM α-synuclein [2]: After 24 hours of treatment, all detectable α-synuclein was degraded by KLK1
